Usually Km stands for the substrate concentration at which the rate is half of its maximum. What is called kcat is the number of substrate molecules converted per active site and unit of time at saturation. One may read the kcat/Km as the second-order rate constant that governs catalysis at low substrate concentration.

Data set [1] concerns the target T1, L-PaPPO (latent polyphenol oxidase from apricot) (Prunus armeniaca, UniProt O81103).
T1 construct: gene PPO; native, purified from fruit; latent mature form Asp102-Ser597 (496 residues), transit peptide removed; 63 kDa by SDS-PAGE; no tag
Nature of the data set: inhibition of catechol oxidation, absorbance. The data set is classed as biochemical. The following applies: for activity at 1000 µM: read-out: 1 mM. The source says: inhibition of catechol oxidation, absorbance on L-PaPPO (latent polyphenol oxidase from apricot)

Data set [2] has as its target T2, A-PaPPO (activated polyphenol oxidase from apricot) (Prunus armeniaca, UniProt O81103).
T2 construct: gene PPO; native, from fruit; C-terminal domain lost during storage at 4 °C; 38 kDa by SDS-PAGE
T2 sequence (O81103 102-429): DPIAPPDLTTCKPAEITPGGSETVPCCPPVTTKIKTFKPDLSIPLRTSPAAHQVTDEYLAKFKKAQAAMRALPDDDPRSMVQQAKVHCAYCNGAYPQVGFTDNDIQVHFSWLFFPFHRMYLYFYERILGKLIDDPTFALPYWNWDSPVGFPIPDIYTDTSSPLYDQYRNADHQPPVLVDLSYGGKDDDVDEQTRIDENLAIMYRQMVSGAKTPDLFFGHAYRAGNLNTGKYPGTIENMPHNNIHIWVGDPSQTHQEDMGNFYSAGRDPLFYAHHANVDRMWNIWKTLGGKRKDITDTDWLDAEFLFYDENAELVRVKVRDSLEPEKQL
Put plainly: in-gel activity staining, partially denaturing SDS-PAGE. Type of data set: biochemical. The following applies: 0.2 M catechol, 50 mM sodium citrate pH 6.5, 25 °C.

The target of data set [3] is T1, L-PaPPO (latent polyphenol oxidase from apricot). Nature of the data set: quinone formation, absorbance, microplate reader; nonlinear regression. Particulars: 50 mM sodium citrate pH 4.5, 25 °C, no SDS; triphenol substrate; latent enzyme activated in the assay. The data set is classed as biochemical. The source says: (§1) quinone formation, absorbance, microplate reader; nonlinear regression on L-PaPPO (latent polyphenol oxidase from apricot)

Substrate in data set [4]: Cc1ccc(O)c(O)c1
The data set is described as above. The data set is classed as biochemical, Prunus armeniaca. Particulars: 50 mM sodium citrate pH 4.5, 25 °C, no SDS, diphenolase, latent enzyme activated in the assay.
Text: as §1

Substrate in data set [5]: Oc1ccccc1O
The data set is described as above. Type of data set: biochemical, Prunus armeniaca. The following applies: 50 mM sodium citrate pH 4.5, 25 °C, no SDS, diphenolase, latent enzyme activated in the assay.
Text: as §1

Substrate in the data set “purified protein”: O=C(/C=C/c1ccc(O)c(O)c1)O[C@@H]1C[C@](O)(C(=O)O)C[C@@H](O)[C@H]1O
Put plainly: purified protein. Particulars: 50 mM sodium citrate pH 4.5, 25 °C, no SDS, diphenolase, latent enzyme activated in the assay.

`O=C(O)c1ccccc1` [benzoic acid]: the activity at 1000 µM in data set [1] is 41 ± 1.2%.
Regarding `Oc1ccccc1O` [catechol], the “in-gel activity staining, partially denaturing SDS-PAGE” value in data set [2] is listed as “single band was detected by in-gel enzymatic activity staining with catechol as substrate”.
As for `Oc1cccc(O)c1O` [pyrogallol], in data set [3], the Km worked out at 11 ± 1.5 mM.
As for `O=c1cc(CO)occ1O` [kojic acid], in data set [1], the activity at 1000 µM was 28 ± 1.1%.
Consider `CCCCCCc1ccc(O)cc1O` [4-hexylresorcinol], for which the activity at 100 µM in data set [1] (read-out: 0.1 mM) is 34 ± 1.4%.
Turning to `O=C(O)CCC(=O)O` [succinic acid], the activity at 10000 µM in data set [1] (read-out: 10 mM) was found to be 89.1 ± 0.53%.

B1: L-PaPPO (latent polyphenol oxidase from apricot) (Prunus armeniaca) (protein)
chain: DPIAPPDLTTCKPAEITPGGSETVPCCPPVTTKIKTFKPDLSIPLRTSPAAHQVTDEYLAKFKKAQAAMRALPDDDPRSMVQQAKVHCAYCNGAYPQVGFTDNDIQVHFSWLFFPFHRMYLYFYERILGKLIDDPTFALPYWNWDSPVGFPIPDIYTDTSSPLYDQYRNADHQPPVLVDLSYGGKDDDVDEQTRIDENLAIMYRQMVSGAKTPDLFFGHAYRAGNLNTGKYPGTIENMPHNNIHIWVGDPSQTHQEDMGNFYSAGRDPLFYAHHANVDRMWNIWKTLGGKRKDITDTDWLDAEFLFYDENAELVRVKVRDSLEPEKQLRYNYEPVSLPWLFTKPTARKTKNKTKAKVAATQLTSKFPATLVEVTTVEVARPKPRKRSKKEKVDEEELLIIKDIEFEGTEAVKFDVFINDDAESLSRRDKSEFAGSFVHVPQGKTTKAKTKTNLKLGITDLLEDLGAEDDSSVLVTLVPRVSNSPITIGGFKIEYSS
notes: native, purified from fruit; latent mature form Asp102-Ser597 (496 residues), transit peptide removed; 63 kDa by SDS-PAGE; no tag
On to B1, for which the figures for the Michaelis-Menten constant (Km) (in data set [4]; in data set [5]; in “purified protein”) were 2.0 ± 0.26 mM, 5.3 ± 0.60 mM and 2.7 ± 0.16 mM, respectively. In addition, the turnover number (kcat) in data set [4] was found to be 700 ± 110 s⁻¹; in data set [5], 210 ± 30 s⁻¹; in “purified protein”, 1400 s⁻¹. For the same molecule, the kcat/Km was 340000 ± 70000 M⁻¹ s⁻¹ in data set [4], 40000 ± 10000 M⁻¹ s⁻¹ in data set [5] and 500000 M⁻¹ s⁻¹ in the data set “purified protein”.

The values above are taken from PMC5609118, “Purification and Characterization of Latent Polyphenol Oxidase from Apricot (Prunus armeniaca L.)” (Journal of Agricultural and Food Chemistry, 2017).
